Test results: patent US20110105397A1, “METHOD FOR TREATING HEART FAILURE WITH STRESSCOPIN-LIKE PEPTIDES” (priority 2009, published 2011)
Like-named read-outs stand apart in the source and are kept apart here. Where no end group is shown, it is not given here.

Key:
human CRHR2 = target: T1, human CRHR2 (Homo sapiens, UniProt Q13324); assay: CRHR2 radioligand binding, [125I]-anti-sauvagine-30, SK-N-MC membranes; settings: CRHR2
T1 construct: expressed in transfected cells
T1 sequence (Q13324 1-411): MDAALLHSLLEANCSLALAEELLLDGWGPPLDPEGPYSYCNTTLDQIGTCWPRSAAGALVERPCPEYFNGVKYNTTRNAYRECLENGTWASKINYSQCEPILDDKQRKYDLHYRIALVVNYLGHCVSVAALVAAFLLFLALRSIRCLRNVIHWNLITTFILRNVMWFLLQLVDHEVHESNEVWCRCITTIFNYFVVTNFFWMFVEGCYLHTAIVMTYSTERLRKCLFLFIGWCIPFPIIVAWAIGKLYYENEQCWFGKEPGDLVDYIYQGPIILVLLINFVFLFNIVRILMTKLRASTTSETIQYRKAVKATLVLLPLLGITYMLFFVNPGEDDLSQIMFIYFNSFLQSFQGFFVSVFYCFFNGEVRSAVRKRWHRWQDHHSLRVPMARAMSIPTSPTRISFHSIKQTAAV
Procedure: The binding profile of h-SCP (SEQ ID NO:1) at CRHR2 was determined in radioligand binding studies in a membrane preparation of SK-N-MC cells stably transfected with human CRHR2 using [^125I]-anti-sauvagine-30 as the radiolabel. […] The solution was then homogenized with a Polytron tissue grinder at a setting of 10 and 7×3 s (Brinkmann Instruments, Westbury, N.Y.). […] The supernatant was re-centrifuged at 26,892×g for 25 min at 4° Celsius with the final pellet being re-suspended in assay buffer. […] For competition studies, cell membranes of […] volume were incubated with either 60 pM [^125I]-anti-sauvagine-30 in 50 μl volume for the CRHR2 assay or with)[^125I]-([…]-sauvagine for the CRHR1 assay in the presence of 15 μl of competing ligand for 120 min having a total volume of 150 μl. […] The bound radioactivity was separated by filtration using a Multiscreen Resist manifold (Millipore Corp., Billerica, Mass., U.S.A). The filters were washed three times with ice-cold PBS at pH 7.5 and radioactivity retained on the filters was quantified by its liquid scintillation measured by a TopCount counter (Packard BioScience, Boston, Mass., U.S.A). All experiments were performed in triplicate. Data from individual competition curves were expressed as the percentage of specific [^125I]-anti-sauvagine-30 or)[^125I]-([…]-sauvagine binding (B) within each experiment. […] The competition curve obtained with h-SCP (SEQ ID NO:1) was biphasic.

[1] = tested on: anaesthetized male Sprague-Dawley rats; assay: Hemodynamics in anaesthetized rats (IV bolus); assay type: in vivo, rat; settings: healthy anaesthetized rats
Procedure: The hemodynamic profile of h-SCP (SEQ ID NO:1) was determined in sodium pentobarbital anaesthetized male Sprague-Dawley rats (FIG. 10). A SPR-320 Mikro-Tip® integrated catheter-tipped micro-manometer (Millar Instruments, Houston, Tex., U.S.A.) was placed in the right femoral artery for blood pressure measurements, and another one directly in the left ventricle for LV pressure measurement. […] The changes in hemodynamic parameters induced by h-SCP (SEQ ID NO:1, full circle in FIG. 10) were blocked by pretreatment with anti-sauvagine-30 (SEQ ID NO:118, open circle in FIG. 10).

[2] = tested on: dogs with advanced heart failure; assay: Hemodynamic, angiographic, echocardiographic profile in anaesthetized dogs with advanced heart failure, IV infusion; assay type: in vivo, dog
Procedure: The effects of h-SCP (SEQ ID NO:1) on cardiovascular function were also assessed in anaesthetized dogs with advanced, irreversible heart failure of ischemic etiology (Sabbah et al., 1991, Am. J. Physiol., vol. 260, pp. H1379-H1384; Sabbah et al., 1994, Circulation, vol. 98, pp. 2852-2859; Chandler et al., 2002, Circ. Res., vol. 91, pp. 278-280). Progressive, advanced heart failure was produced in mongrel dogs by multiple sequential intracoronary microembolization with polystyrene latex microspheres. Dose infusions of 2.2, 4.3, and 7.3 ng/kg/min were administered intravenously over 60 minutes just following or just prior to hemodynamic, angiographic, echocardiographic, and Doppler measurements using conventional hemodynamic, angiographic, echocardiographic, and radiographic methods. The h-SCP polypeptide (SEQ ID NO:1) produced dose- (infusion-) dependent increases in LVEF and SV and decreases in left ventricular end diastolic pressure (LVEDP), left ventricular pressure during isovolumic relaxation (LV-dP/dt), systemic vascular resistance (SVR), and left ventricular end-systolic volume (LVESV) that correlated with plasma concentration. No significant change in heart rate, peak systolic aortic blood pressure, LV+dP/dt, mean pulmonary artery pressure, mean pulmonary artery wedge pressure, right atrial pressure, or myocardial oxygen consumption were recorded following any of the 1 hour intravenous infusions (Table 18 and FIGS. 12 A & B). The improvement in LV systolic and diastolic function was not associated with the development of de novo ventricular arrhythmias.
In order to determine the threshold effective dose-infusion in dogs with advanced heart failure, a further study was performed at lower dose infusions. In addition, the opportunity was taken to explore whether the increase in LVEF produced by higher dose-infusions of 4.3 ng/kg/min would remain stable over a longer infusion period, i.e. 120 minutes.
In order to understand the potential cardiovascular effects of neutralizing antibody formation to h-SCP (SEQ ID NO:1), SV30 (SEQ ID No. 118), a competitive antagonist of CRHR2, was administered to dogs (N=4) with advanced heart failure. […] These experiments with SV30 indicate that baseline cardiovascular parameters in dogs with advanced heart failure were not dependent upon endogenous hormone stimulation of CRHR2. Similar findings have been reported in healthy conscious and anaesthetized rats (Gardiner et al., J. Pharmacol. Exp. Ther., 2007, vol 321, pp. 221-226).

CRHR1 = target: T2, CRHR1 (Homo sapiens, UniProt P34998); assay: CRHR1 radioligand binding, [125I]-(Tyr0)-sauvagine; set-up: host or cells: cell membranes
T2 sequence (P34998 24-415): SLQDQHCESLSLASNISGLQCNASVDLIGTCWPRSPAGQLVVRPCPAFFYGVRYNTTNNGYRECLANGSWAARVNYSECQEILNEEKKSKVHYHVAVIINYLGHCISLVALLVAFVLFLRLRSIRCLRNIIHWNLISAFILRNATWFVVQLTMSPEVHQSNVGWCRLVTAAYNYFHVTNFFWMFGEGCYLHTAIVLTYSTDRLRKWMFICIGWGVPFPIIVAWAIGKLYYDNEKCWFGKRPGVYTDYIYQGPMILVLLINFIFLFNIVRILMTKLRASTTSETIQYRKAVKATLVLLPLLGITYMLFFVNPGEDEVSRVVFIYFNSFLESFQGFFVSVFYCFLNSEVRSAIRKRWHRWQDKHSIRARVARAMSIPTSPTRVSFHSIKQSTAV
Description: The solution was then homogenized with a Polytron tissue grinder at a setting of 10 and 7×3 s (Brinkmann Instruments, Westbury, N.Y.). […] The bound radioactivity was separated by filtration using a Multiscreen Resist manifold (Millipore Corp., Billerica, Mass., U.S.A). The filters were washed three times with ice-cold PBS at pH 7.5 and radioactivity retained on the filters was quantified by its liquid scintillation measured by a TopCount counter (Packard BioScience, Boston, Mass., U.S.A). All experiments were performed in triplicate.

[3] = target: T3, human corticotrophin releasing hormone receptor type 2 (CRHR2) (human) (UniProt Q13324); assay: cell-based or functional assay
T3 sequence (looked up): T1 sequence (Q13324 1-411)

[4] = target: T4, human corticotrophin releasing hormone receptor type 1 (CRHR1) (human, UniProt P34998 24-415); assay: cell-based or functional assay
T4 sequence (looked up): T2 sequence (P34998 24-415)

[5] = target: T3, human corticotrophin releasing hormone receptor type 2 (CRHR2) (human); assay: radioligand competition against [125I]-anti-sauvagine-30, CRHR2 membranes
[6] = target: T4, human corticotrophin releasing hormone …; assay: radioligand competition against [125I]-(Tyr0)-sauvagine, CRHR1 assay, cell membranes
Procedure: Frozen cell pellets were defrosted on ice in 15 ml of assay buffer that was composed of 10 mM HEPES, 130 mM NaCl, 4.7 mM KCl, 5 mM MgCl₂, and 0.089 mM bacitracin at pH 7.2 and 21±3° Celsius. The solution was then homogenized with a Polytron tissue grinder at a setting of 10 and 7×3 s (Brinkmann Instruments, Westbury, N.Y.). The homogenate was centrifuged at 4° Celsius at 800×g for 5 min with the pellet being discarded. The supernatant was re-centrifuged at 26,892×g for 25 min at 4° Celsius with the final pellet being re-suspended in assay buffer. All binding assays were conducted in 96-well Multiscreen GF/B filter plates (Millipore, Billericay, Mass., U.S.A.) that were pre-soaked in assay buffer with 0.3% PEI for 1 hour. […]
The bound radioactivity was separated by filtration using a Multiscreen Resist manifold (Millipore Corp., Billerica, Mass., U.S.A). The filters were washed three times with ice-cold PBS at pH 7.5 and radioactivity retained on the filters was quantified by its liquid scintillation measured by a TopCount counter (Packard BioScience, Boston, Mass., U.S.A). […]
Data from individual competition curves were expressed as the percentage of specific [¹²⁵I]-anti-sauvagine-30 or)[¹²⁵I]-(Tyr⁰-sauvagine binding (B) within each experiment.

[7] = target: T3, human corticotrophin releasing hormone receptor type 2 (CRHR2) (human); assay: radioligand competition against [125I]-anti-sauvagine-30, membranes of SK-N-MC cells with human CRHR2
[8] = target: T3, human corticotrophin releasing hormone receptor type 2 (CRHR2) (human); assay: cell-based or functional assay; remark: listed apart in the source
[9] = target: T5, human corticotrophin releasing hormone receptor type 1 (CRHR1) (human), P34998; assay: radioligand competition against [125I]-(Tyr0)-sauvagine, CRHR1 assay, cell membranes; settings: remark: other sources report otherwise
T5 chain: T2 sequence (P34998 24-415)

[10] = target: T6, human corticotrophin releasing hormone receptor type 2 (CRHR2) (human, UniProt Q13324 1-411); assay: cell-based or functional assay
T6 sequence (looked up): T1 sequence (Q13324 1-411)

[11] = target: T6, human corticotrophin releasing hormone …; assay: cell-based or functional assay; remark: listed apart in the source

For `CC[C@H](C)[C@H](NC(=O)[C@@H](NC(=O)[C@H](CC(=O)O)NC(=O)[C@H](CC(C)C)NC(=O)[C@H](CC(C)C)NC(=O)[C@H](CC(C)C)NC(=O)[C@H](CCCNC(=N)N)NC(=O)[C@H](CC(N)=O)NC(=O)[C@H](CC(N)=O)NC(=O)[C@H](C)NC(=O)[C@H](C)NC(=O)[C@H](CCC(N)=O)NC(=O)[C@H](CCC(N)=O)NC(=O)[C@H](CCCCN)NC(=O)[C@H](CCC(=O)O)NC(=O)[C@H](CCCCN)NC(=O)[C@H](CCC(=O)O)NC(=O)[C@H](CCC(N)=O)NC(=O)[C@H](CCCCN)NC(=O)[C@H](CCC(=O)O)NC(=O)[C@@H](NC(=O)[C@H](CCC(=O)O)NC(=O)[C@@H](NC(=O)[C@H](CCSC)NC(=O)[C@H](CCCCN)NC(=O)[C@H](CCCNC(=N)N)NC(=O)[C@H](CC(C)C)NC(=O)[C@H](CC(C)C)NC(=O)[C@H](Cc1c[nH]cn1)NC(=O)C(N)Cc1ccccc1)[C@@H](C)CC)[C@@H](C)CC)[C@@H](C)O)C(N)=O` (stereo partly drawn) [SEQ ID NO: 118, FHLLRKMIEIEKQEKEKQQAANNRLLLDTI-NH2, reference compound], the nH (human CRHR2) was 1.15 ± 0.12, the “effect on baseline hemodynamic parameters” value [1] was “did not inhibit baseline parameters” and the “effect on cardiovascular parameters” value ([2]; CRHR2 blocking doses in dogs with advanced heart failure (N=4)) was “without effect on cardiovascular parameters”. The CO ([2]; Table 20, AS-30 alone) was 1.44 ± 0.04 L/min, the HR ([2]; Table 20, AS-30 alone) was 79 ± 3 beats/min and the “LV+dP/dt” value ([2]; Table 20, AS-30 alone) was 1675 ± 109 mmHg/sec. It also gave an LVEDP ([2]; Table 20, AS-30 alone) of 15 ± 1 mmHg, an LVEDV ([2]; Table 20, AS-30 alone) of 68 ± 2.7 mL and an LVEF ([2]; Table 20, AS-30 alone) of 27 ± 0%. For the same molecule, the LVESV ([2]; Table 20, AS-30 alone) was 50 ± 1.9 mL, the MPAP ([2]; Table 20, AS-30 alone) was 16 ± 0.7 mmHg and the PSAP ([2]; Table 20, AS-30 alone) was 94 ± 5 mmHg. The SV ([2]; Table 20, AS-30 alone) was 18 ± 0.8 mL and the nH (CRHR1) was 1.00 ± 0.49.

B1: Human stresscopin with amidated C-terminus (peptide)
peptide: TKFTLSLDVPTNIMNLLFNIAKAKNLRAQAAANAHLMAQI-NH2
notes: 40-amino-acid peptide; also called h-SCP
B1 was tested, and the A50 (concentration required for 50% maximum effect), cAMP [3] was 0.4 nM, the control pA50 across assay batches [3] was 9.47 to 9.74 -log10(M) and the pA50 [3] was 9.4 -log10(M). The pA50 [4] was < 5 -log10(M), the pIC50 (low affinity state) [5] was 6.6 -log10(M) and the pKI [6] was 4.6 -log10(M). The pKI [7] was 5.71 -log10(M).

In the case of DDPPLSIDLTFHLLRTLLELARTQSQRERAEQNRIIFDSV-NH2 [r-UCN1], the pA50 [8] is reported as 9.08 -log10(M), the pA50 [4] is reported as 9.19 -log10(M) and the pKI [7] is reported as 8.51 -log10(M).

FTLSLDVPTNIMNLLFNIAKAKNLRAQAAANAHLMAQI-NH2 [human urocortin III] was tested, and the pA50 [3] was 9.26 -log10(M), the pA50 [4] was < 5 -log10(M) and the pKI [9] was 4.96 -log10(M). The pKI [7] was 6.49 -log10(M).

For TKFTLSLDVPTNIMNLLFNIAKAKNLRAQAAANAHLMAQI-OH [non-amidated h-SCP], the “fold decrease in potency against the amidated parent peptide, cAMP” value [10] was about 200 fold and the pA50 [11] was 7.1 -log10(M).
